Results taken from PMC12931730 (2025).

How the values were obtained:
[1] = biological target: T1, lysin motif (LysM) peptidoglycan-binding domain-containing protein (LPDP), recombinant (Staphylococcus lentus, UniProt A0A8I0UA09); test: MST
[2] = biological target: T1, lysin motif (LysM) …; test: MST; in the presence of tubuloside B

B1: PDZ and LIM domain 3 (PDLIM3) (natural protein)
chain: MPQNVVLPGPAPWGFRLSGGIDFNQPLVITRITPGSKAAAANLCPGDVILAIDGFGTESMTHADAQDRIKAASYQLCLKIDRAETRLWSPQVSEDGKAHPFKINLEAEPQEFKPIGTAHNRRAQPFVAAANIDDKRQVVSASYNSPIGLYSTSNIQDALHGQLRGLIPGSLQNEPTASVPPQSDVYRMLHDNRDDPAAPRQSGSFRVLQDLVNDGPDDRPAGTRSVRAPVTKVHGGAGSAQRMPLCDKCGSGIVGAVVKARDKYRHPECFVCADCNLNLKQKGYFFVEGELYCETHARARTRPPEGYDTVTLYPKA
modifications: fluorescently labeled with the Monolith His-Tag Labeling Kit (in the microscale thermophoresis only)
[1]
  Kd: 0.93 µM
[2]
  Kd: 4.55 µM
